Consider eleven molecules from patent US20240400722A1 (MILTENYI BIOTEC B V, published 2024).

B2: M1 ΔAA displayed on yeast (VHH, not shown: large carriers; small tags and cut ends)
chain: QVQLVESGGGLVQAGGSLRLSATASGRTGTIYSMAWFRQAPGKEREFLAPVALGLQSTYYMDSVKGRFTISRDKGKNTVYLQMDSLKPEDTAVYYATATRAYSVGYDYWGQGTQVTVSS
notes: also called acVHH-M1 C22A C96A
B3: M1 ΔWA displayed on yeast (VHH, not shown: large carriers; small tags and cut ends)
chain: QVQLVESGGGLVQAGGSLRLSWTASGRTGTIYSMAWFRQAPGKEREFLAPVALGLQSTYYMDSVKGRFTISRDKGKNTVYLQMDSLKPEDTAVYYATATRAYSVGYDYWGQGTQVTVSS
notes: also called acVHH-M1 C22W C96A
B4: M1 ΔFA displayed on yeast (VHH, not shown: large carriers; small tags and cut ends)
chain: QVQLVESGGGLVQAGGSLRLSFTASGRTGTIYSMAWFRQAPGKEREFLAPVALGLQSTYYMDSVKGRFTISRDKGKNTVYLQMDSLKPEDTAVYYATATRAYSVGYDYWGQGTQVTVSS
notes: also called acVHH-M1 C22F C96A
B5: M1 ΔAW displayed on yeast (VHH, not shown: large carriers; small tags and cut ends)
chain: QVQLVESGGGLVQAGGSLRLSATASGRTGTIYSMAWFRQAPGKEREFLAPVALGLQSTYYMDSVKGRFTISRDKGKNTVYLQMDSLKPEDTAVYYWTATRAYSVGYDYWGQGTQVTVSS
notes: also called acVHH-M1 C22A C96W
B6: M1 ΔVA displayed on yeast (VHH, not shown: large carriers; small tags and cut ends)
chain: QVQLVESGGGLVQAGGSLRLSVTASGRTGTIYSMAWFRQAPGKEREFLAPVALGLQSTYYMDSVKGRFTISRDKGKNTVYLQMDSLKPEDTAVYYATATRAYSVGYDYWGQGTQVTVSS
notes: also called acVHH-M1 C22V C96A
B7: M1 ΔWP displayed on yeast (VHH, not shown: large carriers; small tags and cut ends)
chain: QVQLVESGGGLVQAGGSLRLSWTASGRTGTIYSMAWFRQAPGKEREFLAPVALGLQSTYYMDSVKGRFTISRDKGKNTVYLQMDSLKPEDTAVYYPTATRAYSVGYDYWGQGTQVTVSS
notes: also called acVHH-M1 C22W C96P
B8: His tag-acVHH-V104D, soluble (VHH, not shown: small tags and cut ends)
VHH: QVQLVESGGGLVQAGGSLRLSCTASGRTGTIYSMAWFRQAPGKEREFLATVGWSSGITYYMDSVKGRFTISRDKGKNTVYLQMDSLKPEDTAVYYCTATRAYSDGYDYWGQGTQVTVSS
notes: also called AB1; Tag-V104D
B9: M1 ΔAV displayed on yeast (VHH, not shown: large carriers; small tags and cut ends)
chain: QVQLVESGGGLVQAGGSLRLSATASGRTGTIYSMAWFRQAPGKEREFLAPVALGLQSTYYMDSVKGRFTISRDKGKNTVYLQMDSLKPEDTAVYYVTATRAYSVGYDYWGQGTQVTVSS
notes: also called acVHH-M1 C22A C96V
B10: acVHH-V104D displayed on yeast (Aga2p-HA-tag-(Gly4Ser)3 linker-acVHH-V104D-c-myc tag) (VHH, not shown: large carriers; small tags and cut ends)
VHH: QVQLVESGGGLVQAGGSLRLSCTASGRTGTIYSMAWFRQAPGKEREFLATVGWSSGITYYMDSVKGRFTISRDKGKNTVYLQMDSLKPEDTAVYYCTATRAYSDGYDYWGQGTQVTVSS
B11: M1 ΔGW displayed on yeast (VHH, not shown: large carriers; small tags and cut ends)
chain: QVQLVESGGGLVQAGGSLRLSGTASGRTGTIYSMAWFRQAPGKEREFLAPVALGLQSTYYMDSVKGRFTISRDKGKNTVYLQMDSLKPEDTAVYYWTATRAYSVGYDYWGQGTQVTVSS
notes: also called acVHH-M1 C22G C96W

Experiment [1] concerns the target T1, acVHH-WT displayed on yeast (Aga2p-HA-tag-(Gly4Ser)3 linker-acVHH-WT-c-myc tag).
T1 construct: Yeast surface display fusion on S. cerevisiae EBY100
The experiment is described as follows: yeast surface display; 400 nM soluble acVHH-WT, caffeine titrated (data of FIG. 3I); mean ± S.D. The source says:
(§1) Measured with yeast display and normalized to maximum binding signal (n=3, averages±standard deviations).

For experiment [2], the target named is B8. The experiment is described as follows: yeast surface display, flow cytometry (n=1).
Experiment [3] has as its target T1, acVHH-WT displayed on yeast …. The experiment is described as follows: yeast surface display, flow cytometry; soluble acVHH-V104D with 10 µM compound or without. Here is the method:
Expression of the acVHH variants on yeast was induced by culturing the cells in SG-CAA medium (20 g/L galactose, 2 g/L glucose, 6.7 g/L yeast nitrogen base, 5 g/L bacto casamino acids, 10.2 g/L Na₂HPO₄*7 H₂O, 8.56 g/L NaH₂PO₄*H₂O) overnight at 20° C. and 180 rpm. Detection of full-length proteins on the surface of the cells was carried out by staining the cells with anti-c-myc AlexaFluor 488 (9E10, Thermo Fisher).

In experiment [4] the target is B4. The experiment is described as follows: yeast surface display, flow cytometry; soluble acVHH-V104D with and without 10 µM caffeine (n=1).
The target in experiment [5] is B6. The description is as above.
The target in experiment [6] is B3. The description is as above.
Experiment [7] deals with B9. The description is as above.
In experiment [8] the target is B2. Described as above.
Experiment [9] has as its target B11. The description is as above.
The target of experiment [10] is B5. The experiment is described as above.
The target in experiment [11] is B7. The description is as above.
Experiment [12] addresses T2, dfM1-1 displayed on yeast (Aga2p-HA-tag-(Gly4Ser)3 linker-dfM1-1-c-myc tag).
T2 construct: also called disulfide free M1 variant
The experiment is described as follows: yeast surface display; 400 nM soluble acVHH-V104D, caffeine titrated (data of FIG. 3I); mean ± S.D. As for the experimental part: (§2) Expression of the variants on yeast was carried out in SG-CAA as described above.
as §1

Experiment [13] has as its target T3, acVHH-M1 displayed on yeast (Aga2p-HA-tag-(Gly4Ser)3 linker-acVHH-M1-c-myc tag).
T3 construct: also called AB2
Described as above. Here is the method: as §2, §1

Experiment [14] deals with T4, dfM1-2 displayed on yeast (Aga2p-HA-tag-(Gly4Ser)3 linker-dfM1-2-c-myc tag).
T4 construct: also called disulfide free M1 variant
The description is as above. Here is the method:
as §2, §1

For experiment [15], the target named is B10. The experiment is described as follows: yeast surface display, flow cytometry; soluble acVHH-V104D with and without 10 µM caffeine. As for the experimental part:
(§3) The staining for flow cytometry characterization was performed in PBSA (PBS containing 15 μM bovine serum albumin). […] After a final washing step, the cells were analyzed with a CytoFLEX S flow cytometer (Beckman Coulter).

For experiment [16], the target named is T2, dfM1-1 displayed on yeast …. The experiment is described as follows: yeast surface display titration with soluble acVHH-V104D, 30 µM caffeine, signal normalised to the maximum.
Experiment [17] has as its target T3, acVHH-M1 displayed on yeast …. The experiment is described as above.
The target in experiment [18] is T4, dfM1-2 displayed on yeast …. The experiment is described as above.
Experiment [19] concerns the target T2, dfM1-1 displayed on yeast …. The experiment is described as follows: yeast surface display titration with soluble acVHH-V104D, + caffeine (30 µM, data of FIG. 3H); mean ± S.D.
Experiment [20] addresses T3, acVHH-M1 displayed on yeast …. Described as above.
The target of experiment [21] is T4, dfM1-2 displayed on yeast …. The experiment is described as above.
Experiment [22] concerns the target B8. The experiment is described as follows: yeast surface display, flow cytometry. As for the experimental part:
as §3

T1 sequence (chain, as listed by the source): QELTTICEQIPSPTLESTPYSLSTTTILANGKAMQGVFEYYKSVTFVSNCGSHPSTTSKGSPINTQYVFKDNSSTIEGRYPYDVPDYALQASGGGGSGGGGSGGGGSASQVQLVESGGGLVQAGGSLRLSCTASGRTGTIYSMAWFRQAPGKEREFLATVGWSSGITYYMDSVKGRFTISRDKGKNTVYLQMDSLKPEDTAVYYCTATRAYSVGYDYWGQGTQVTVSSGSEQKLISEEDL

B1: His tag-acVHH-WT anti-caffeine nanobody, soluble (VHH)
VHH: QVQLVESGGGLVQAGGSLRLSCTASGRTGTIYSMAWFRQAPGKEREFLATVGWSSGITYYMDSVKGRFTISRDKGKNTVYLQMDSLKPEDTAVYYCTATRAYSVGYDYWGQGTQVTVSS
notes: Expressed in E. coli; also called AB0; not shown: His tag
On to B1, for which the “EC50,YSD (caffeine concentration for half-maximal dimerisation)” value in [1] is 4300 nM.
Consider B2, for which the binding result in experiment [2] is given as “no binding”.
B3: the binding result in [2] was “no binding”.
On to B4, for which the binding result in experiment [2] is “no binding”.
Consider B5, for which the binding result in [2] is “no binding”.
For the molecule B6, the binding result in [2] is “no binding”.
For B7, the binding result in experiment [2] is on record as “no binding”.
On to B8, for which the binding result in experiment [3], in experiment [4], in experiment [5], in [6], in experiment [7] and in experiment [8] was “no binding (tested: 500 nM)” throughout. Moreover, the binding result in experiment [9], in experiment [10], in experiment [11] and in experiment [15] was “no binding (tested: 500 nM)” throughout. The figures for the “EC50,YSD (caffeine concentration for half-maximal dimerisation)” value in [12], in experiment [13] and in experiment [14] were 83000 nM, 104000 nM and 124000 nM, respectively. The “EC50 (read off the curve)” value in [16] was about 20 nM; in [17] it was about 30 nM; in experiment [18], about 20 nM. The Kd was determined as 18.8 nM in experiment [19], 30 nM in experiment [20] and 21.8 nM in experiment [21].
Consider B9, for which the binding result in experiment [2] is reported as “no binding”.
Regarding B10, the binding result in [22] was “no binding”.
As to B11, in experiment [2], the binding result is listed as “no binding”.
